This data set concerns the molecule itself. Put plainly: negative-stain electron microscopy; gel-filtration fractions of the low and the high MW peak stained and visualised by EM.

The values that follow come from publication PMC5223209, “New insights into the GINS complex explain the controversy between existing structural models” (Scientific Reports, 2017).

B1: S. cerevisiae GINS complex (complex)
chain 1: MDINIDDILAELDKETTAVDSTKITQGSSSTTHRDANTIVGSSLDLNDKTQIYVSPQQDFSDLMKSWKNERCSPELLPYPHQLMKRLLNRISMQSQLIENISMGFLDMQNASNANPPMPNESKLPLLCMETELERLKFVIRSYIRCRLSKIDKFSLYLRQLNEDENSLISLTDLLSKDEIKYHDTHSLIWLKLVNDSILKYMPEELQAINDTEGSVNMIDEPDWNKFVFIHVNGPPDGKWNEDPLLQENEFGKPCYTVTIPDLKEEVELTIGSIYVMRYEVIRDLLRDDKVALI
chain 2: MYGDLGNKLVLEAKRTKQLYARSNQDVNLPMYHEDIIRNILKEVSNLRKNTEYLKEQQQLGMLDDKVAKCQYFVTLLCMERNKRCLLAYQRLRTDILDSMAWNNNGLDLMSSITFSQQDTNNLSHQEQEYLKEYCDLITDLKSGDLVDIDLSGSLVPPSDVFIDVRVLKDAGEIQTEYGVFNLIKDSQFFVRQSDVERLIQQGYLQKI
chain 3: MSLPAHLQQTFSPEEIQFIVENEPIKIFPRITTRQKIRGDDRGTGNHTRWQLITTDDKALNNMVAMRSTEVVLWIALLLKQQSKCSIVAPQWLTTKELDRKIQYEKTHPDRFSELPWNWLVLARILFNKAKDDFHDPIHELRGKIQDLREIRQIKVLKGLKYLNESHLQLDNLSLLEINELRPFITEIMDKLREIHTASLTAGTENDEEEFNI
chain 4: MGYYDIDDVLADGTEFPCKFQYDIPGLGYLENNPGRPITKNTKLSLPLWLARILAIVGGDEALVDEEPVPFVELLPPDMFSTKVMNAIKTDPVALDLHSINSHFFSLAIKWIMLFSEKELANVVSELLLQRAQELNHHASSLSIDLNADSTGKNSANTNIATSTFLLKLEEMEKEIYKKSHESYKDTKRWMFKK
notes: Sld5 subunit of the S. cerevisiae GINS complex; Psf1 subunit of the S. cerevisiae GINS complex; Psf2 subunit of the S. cerevisiae GINS complex; Psf3 subunit of the S. cerevisiae GINS complex; details may be in the Supplementary Information; also called yeast GINS complex; copies: + + +
On to B1, for which the binding result was “binds”.
